“And” between values parts separate entries of the source, which are not always exact repeats. Equal values may be shown once.
Assays:
Assay in all cases: SPR
[1] = molecular target: EVA-A(1-98) (A. americanum)
[2] = molecular target: EVA-A(21-102) (A. americanum)
[3] = molecular target: EVA-A(DC) (Amblyomma americanum)
[4] = molecular target: EVA-A(DN) (Amblyomma americanum)
[5] = molecular target: EVA-A(L39P) (A. americanum)
[6] = molecular target: EVA-A(L39P) (Amblyomma americanum)
[7] = molecular target: EVA-A(Y44A) (A. americanum)
[8] = molecular target: EVA-A(Y44A) (Amblyomma americanum)
[9] = molecular target: EVA-A(C8) (A. americanum)
[10] = molecular target: EVA-A(C8) (Amblyomma americanum)

Sequence of CCL15 (Q16663 22-113): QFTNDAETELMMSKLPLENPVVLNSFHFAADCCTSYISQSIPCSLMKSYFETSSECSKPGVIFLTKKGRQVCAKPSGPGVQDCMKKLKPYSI
Sequence of CCL14 (Q16627 20-93): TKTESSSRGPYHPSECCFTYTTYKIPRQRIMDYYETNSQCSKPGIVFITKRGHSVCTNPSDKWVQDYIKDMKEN
Sequence of CCL8 (P80075 24-99): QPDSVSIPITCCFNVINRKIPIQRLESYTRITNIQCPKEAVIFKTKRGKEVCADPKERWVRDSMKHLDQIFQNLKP
Sequence of CCL1 (P22362 24-96): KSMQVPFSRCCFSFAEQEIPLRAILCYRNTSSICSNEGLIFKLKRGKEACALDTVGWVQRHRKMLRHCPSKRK
Sequence of CCL21 (O00585 24-134): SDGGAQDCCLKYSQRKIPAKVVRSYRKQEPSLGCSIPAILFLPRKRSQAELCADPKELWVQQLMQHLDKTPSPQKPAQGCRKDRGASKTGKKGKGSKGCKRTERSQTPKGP
Sequence of CCL22 (O00626 25-93): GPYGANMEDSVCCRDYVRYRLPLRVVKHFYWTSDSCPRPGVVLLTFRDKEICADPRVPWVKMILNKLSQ
Sequence of CCL27 (Q9Y4X3 25-112): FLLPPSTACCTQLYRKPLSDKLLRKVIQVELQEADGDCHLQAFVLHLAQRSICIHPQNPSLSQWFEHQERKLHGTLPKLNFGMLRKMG
Sequence of CCL2 (P13500 24-99): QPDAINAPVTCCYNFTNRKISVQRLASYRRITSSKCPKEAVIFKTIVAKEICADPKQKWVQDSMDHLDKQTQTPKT
Sequence of CCL17 (Q92583 24-94): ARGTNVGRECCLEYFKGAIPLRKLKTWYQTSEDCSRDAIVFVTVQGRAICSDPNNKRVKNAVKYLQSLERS
Sequence of CCL7 (P80098 24-99): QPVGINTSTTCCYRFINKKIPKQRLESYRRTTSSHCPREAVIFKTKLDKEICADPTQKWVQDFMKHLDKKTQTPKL
Sequence of CCL18 (P55774 21-89): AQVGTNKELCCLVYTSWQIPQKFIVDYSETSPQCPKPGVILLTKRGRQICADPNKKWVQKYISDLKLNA
Sequence of CCL23 (P55773 22-120): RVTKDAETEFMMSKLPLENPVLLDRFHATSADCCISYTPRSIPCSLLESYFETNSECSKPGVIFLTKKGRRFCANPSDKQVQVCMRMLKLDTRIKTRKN

| Substance | Kd [1] [nM] | koff [1] [s⁻¹] | kon [1] [M⁻¹ s⁻¹] | Kd [2] [nM] | koff [2] [s⁻¹] | kon [2] [M⁻¹ s⁻¹] | Kd [3] | Kd [4] | Kd [5] [nM] | koff [5] [s⁻¹] | kon [5] [M⁻¹ s⁻¹] | Kd [6] | koff [6] | kon [6] | Kd [7] [nM] | koff [7] [s⁻¹] | kon [7] [M⁻¹ s⁻¹] | Kd [8] | koff [8] | kon [8] | also measured |
| --- | --- | --- | --- | --- | --- | --- | --- | --- | --- | --- | --- | --- | --- | --- | --- | --- | --- | --- | --- | --- | --- |
| CCL1 (from UniProt P22362 24-96) (ligand) | 406 | 0.00168 | 6000 | 457 | 0.18 | 268000 | 327 nM and 241 nM and 650 nM | 686 nM and 369 nM and 318 nM | 57.5 | 0.00167 | 17000 | 44.7 nM and 48.2 nM and 79.6 nM | 0.000863 s⁻¹ and 0.00063 s⁻¹ and 0.00153 s⁻¹ | 19300 M⁻¹ s⁻¹ and 13100 M⁻¹ s⁻¹ and 19200 M⁻¹ s⁻¹ | 49.9 | 0.00256 | 57000 | 30.2 nM and 67.9 nM and 51.6 nM | 0.00285 s⁻¹ and 0.00348 s⁻¹ and 0.00135 s⁻¹ | – | koff [3]: 0.00168 s⁻¹ and 0.00255 s⁻¹ and 0.00199 s⁻¹ |
| CCL14 (from UniProt Q16627 20-93) (ligand) | < 0.1 | < 0.0001 | 239000 | 0.11 | 8e-05 | 703000 | – | – | 0.04 | 0.00013 | 2.41e+06 | – | – | – | 0.11 | 5e-05 | 481000 | – | – | – | Kd [9]: 1.3 nM; koff [9]: 0.00048 s⁻¹; kon [9]: 386000 M⁻¹ s⁻¹ |
| CCL15 (from UniProt Q16663 22-113) (ligand) | 31.7 | 0.00162 | 53000 | 34 | 0.00214 | 63000 | – | – | 26.6 | 0.00467 | 102000 | – | – | – | 161 | 0.0117 | 79000 | – | – | – | Kd [9]: 577 nM; koff [9]: 0.0127 s⁻¹; kon [9]: 22000 M⁻¹ s⁻¹ |
| CCL18 (from UniProt P55774 21-89) (ligand) | < 0.1 | < 0.0001 | 443000 | < 0.1 | < 0.0001 | 1.59e+06 | 0.00073 nM and 0.00413 nM and 0.00277 nM | 0.000563 nM and 0.000228 nM and 0.000552 nM | < 0.1 | < 0.0001 | 3.74e+06 | 0.00439 nM and 0.00871 nM and 0.0273 nM | – | 3.31e+06 M⁻¹ s⁻¹ and 3.54e+06 M⁻¹ s⁻¹ and 4.37e+06 M⁻¹ s⁻¹ | < 0.1 | < 0.0001 | 1.69e+06 | 0.0553 nM and 0.0303 nM and 0.0163 nM | 7.08e-05 s⁻¹ and 5.3e-05 s⁻¹ and 3.33e-05 s⁻¹ | 1.28e+06 M⁻¹ s⁻¹ and 1.75e+06 M⁻¹ s⁻¹ and 2.05e+06 M⁻¹ s⁻¹ | Kd [9]: < 0.1 nM; koff [9]: < 0.0001 s⁻¹; kon [9]: 837000 M⁻¹ s⁻¹; Kd [10]: 0.0591 nM and 0.0302 nM and 0.0473 nM; koff [10]: 5.57e-05 s⁻¹ and 2.29e-05 s⁻¹ and 3.83e-05 s⁻¹; kon [10]: 943000 M⁻¹ s⁻¹ and 758000 M⁻¹ s⁻¹ and 810000 M⁻¹ s⁻¹; kon [3]: 496000 M⁻¹ s⁻¹ and 427000 M⁻¹ s⁻¹ and 406000 M⁻¹ s⁻¹; koff [4]: 1.04e-06 s⁻¹ and 4.52e-07 s⁻¹ and 5.08e-07 s⁻¹; kon [4]: 1.86e+06 M⁻¹ s⁻¹ and 1.98e+06 M⁻¹ s⁻¹ and 921000 M⁻¹ s⁻¹ |
| CCL2 (from UniProt P13500 24-99) (ligand) | – | – | – | – | – | – | – | – | 24.9 | 0.036 | 329000 | 25.6 nM and 20.7 nM and 28.4 nM | 0.00858 s⁻¹ and 0.00729 s⁻¹ and 0.00847 s⁻¹ | 335000 M⁻¹ s⁻¹ and 353000 M⁻¹ s⁻¹ and 298000 M⁻¹ s⁻¹ | 123 | 0.032 | 291000 | 109 nM and 191 nM and 70 nM | – | – | – |
| CCL11(F11A) (from UniProt P51671 24-97) (ligand) | – | – | – | – | – | – | – | – | 0.51 | 0.00035 | 707000 | 0.424 nM and 0.602 nM and 0.499 nM | 0.000383 s⁻¹ and 0.000365 s⁻¹ and 0.000304 s⁻¹ | 904000 M⁻¹ s⁻¹ and 606000 M⁻¹ s⁻¹ and 610000 M⁻¹ s⁻¹ | 2.83 | 0.00226 | 802000 | 2.64 nM and 2.95 nM and 2.91 nM | 0.00233 1/s (2×) and 0.00213 1/s | 884000 M⁻¹ s⁻¹ and 722000 M⁻¹ s⁻¹ and 801000 M⁻¹ s⁻¹ | – |
| CCL14 (ligand) | – | – | – | – | – | – | – | – | – | – | – | – | – | – | – | – | – | – | – | – | kon [3]: 206000 M⁻¹ s⁻¹ and 297000 M⁻¹ s⁻¹ and 214000 M⁻¹ s⁻¹ |
| CCL22 (from UniProt O00626 25-93) (ligand) | 125 | 0.00084 | 29000 | 61.6 | 0.00161 | 26000 | 125 nM | 64.9 nM and 73.9 nM and 46 nM | 1.46 | 0.00292 | 1.03e+06 | 1.64 nM and 1.17 nM and 1.57 nM | 0.00125 s⁻¹ and 0.00151 s⁻¹ and 0.00165 s⁻¹ | 763000 M⁻¹ s⁻¹ and 1.28e+06 M⁻¹ s⁻¹ and 1.05e+06 M⁻¹ s⁻¹ | 11.2 | 0.00818 | 766000 | 6.2 nM and 14.4 nM and 13.1 nM | 0.0056 s⁻¹ and 0.00713 s⁻¹ and 0.0118 s⁻¹ | 903000 M⁻¹ s⁻¹ and 496000 M⁻¹ s⁻¹ and 899000 M⁻¹ s⁻¹ | kon [3]: 37600 M⁻¹ s⁻¹ and 12800 M⁻¹ s⁻¹; koff [4]: 0.00186 s⁻¹ and 0.00173 s⁻¹ and 0.00125 s⁻¹; kon [4]: 28700 M⁻¹ s⁻¹ and 23400 M⁻¹ s⁻¹ and 27200 M⁻¹ s⁻¹ |
| CCL15 (ligand) | – | – | – | – | – | – | 30.9 nM and 32.9 nM and 31.2 nM | – | – | – | – | – | – | – | – | – | – | – | – | – | koff [3]: 0.00162 s⁻¹ and 0.00173 s⁻¹ and 0.00167 s⁻¹; kon [3]: 52500 M⁻¹ s⁻¹ and 52700 M⁻¹ s⁻¹ and 53700 M⁻¹ s⁻¹ |
| CCL21 (from UniProt O00585 24-134) (ligand) | 17.8 | 0.00233 | 126000 | 47.5 | 0.0106 | 224000 | 30.1 nM and 12.1 nM and 11.4 nM | 51.1 nM and 51.4 nM and 40 nM | 24.5 | 0.00484 | 197000 | 24.3 nM and 19.8 nM and 29.4 nM | 0.00331 s⁻¹ and 0.00445 s⁻¹ and 0.00676 s⁻¹ | 136000 M⁻¹ s⁻¹ and 225000 M⁻¹ s⁻¹ and 230000 M⁻¹ s⁻¹ | 119 | 0.00356 | 36000 | 135 nM and 40.8 nM and 180 nM | 0.00431 s⁻¹ and 0.00219 s⁻¹ and 0.00417 s⁻¹ | 32000 M⁻¹ s⁻¹ and 53800 M⁻¹ s⁻¹ and 23100 M⁻¹ s⁻¹ | koff [3]: 0.00233 s⁻¹ and 0.00174 s⁻¹ and 0.00177 s⁻¹; kon [3]: 77500 M⁻¹ s⁻¹ and 144000 M⁻¹ s⁻¹ and 154000 M⁻¹ s⁻¹; koff [4]: 0.0125 s⁻¹ and 0.0092 s⁻¹ and 0.00995 s⁻¹; kon [4]: 245000 M⁻¹ s⁻¹ and 179000 M⁻¹ s⁻¹ and 248000 M⁻¹ s⁻¹ |
| CCL23 (from UniProt P55773 22-120) (ligand) | 0.45 | 2e-05 | 144000 | 0.51 | 4e-05 | 87000 | – | – | 1.14 | 0.00067 | 140000 | – | – | – | 18.8 | 0.00176 | 100000 | – | – | – | Kd [9]: 20.3 nM; koff [9]: 0.00131 s⁻¹; kon [9]: 74000 M⁻¹ s⁻¹ |
| CCL17 (from UniProt Q92583 24-94) (ligand) | < 0.1 | – | – | 1.04 | – | – | – | 1.06 nM and 1.05 nM and 1.01 nM | 7.49 | – | – | 3.31 nM and 3.25 nM and 15.9 nM | – | – | 61.9 | – | – | 65.8 nM and 104 nM and 15.8 nM | – | – | Kd [9]: 97.1 nM; Kd [10]: 77 nM and 67.5 nM and 147 nM |
| CCL8 (from UniProt P80075 24-99) (ligand) | 163 | 0.0344 | 173000 | 169 | 0.0344 | 112000 | 188 nM and 89.1 nM and 212 nM | 328 nM and 146 nM and 34.1 nM | 2.59 | 0.00218 | 971000 | 2.73 nM and 2.16 nM and 2.89 nM | 0.00242 s⁻¹ and 0.00205 s⁻¹ and 0.00312 s⁻¹ | 884000 M⁻¹ s⁻¹ and 949000 M⁻¹ s⁻¹ and 1.08e+06 M⁻¹ s⁻¹ | 3.62 | 0.00156 | 474000 | 4.46 nM and 3.95 nM and 2.44 nM | 0.00137 s⁻¹ and 0.0015 s⁻¹ and 0.0018 s⁻¹ | 307000 M⁻¹ s⁻¹ and 378000 M⁻¹ s⁻¹ and 737000 M⁻¹ s⁻¹ | – |
| CCL16(L19A) (from UniProt O15467 24-120) (ligand) | – | – | – | – | – | – | – | – | 1.53 | 0.00085 | 560000 | 1.54 nM and 1.52 nM (2×) | 0.000757 s⁻¹ and 0.000893 s⁻¹ and 0.000913 s⁻¹ | 492000 M⁻¹ s⁻¹ and 588000 M⁻¹ s⁻¹ and 599000 M⁻¹ s⁻¹ | 15.9 | 0.00151 | 107000 | 25.2 nM and 12.3 nM and 10.2 nM | 0.00171 s⁻¹ and 0.00134 s⁻¹ and 0.00147 s⁻¹ | 68100 M⁻¹ s⁻¹ and 109000 M⁻¹ s⁻¹ and 144000 M⁻¹ s⁻¹ | – |
| CCL27 (from UniProt Q9Y4X3 25-112) (ligand) | 41.7 | 0.00409 | 95000 | – | – | – | 36.9 nM and 53 nM and 35.3 nM | – | 63.9 | 0.00309 | 45000 | 48.2 nM and 78.8 nM and 64.7 nM | 0.00218 s⁻¹ and 0.00268 s⁻¹ and 0.00356 s⁻¹ | 45300 M⁻¹ s⁻¹ and 34000 M⁻¹ s⁻¹ and 55000 M⁻¹ s⁻¹ | 110 | 0.00639 | 52000 | 59.4 nM and 191 nM and 78.8 nM | – | 51200 M⁻¹ s⁻¹ and 70200 M⁻¹ s⁻¹ and 34000 M⁻¹ s⁻¹ | koff [3]: 0.00409 s⁻¹ and 0.00367 s⁻¹ and 0.0037 s⁻¹; kon [3]: 111000 M⁻¹ s⁻¹ and 69300 M⁻¹ s⁻¹ and 105000 M⁻¹ s⁻¹ |
| CCL7 (from UniProt P80098 24-99) (ligand) | 1010 | – | – | – | – | – | – | – | – | – | – | – | – | – | – | – | – | 4.63 nM and 5.4 nM and 4.4 nM | – | – | Kd [9]: 765 nM |

From article PMC10349104
